± gives the standard deviation.
Assay: protein stability index of a GFP-peptide fusion (GPS, HEK-293T) (PSI 1-6); higher = more stable
[1] = treatment: DMSO, c terminus: a fixed tail appended
[2] = treatment: MLN4924 1 uM, 8 h, c terminus: a fixed tail appended
[3] = treatment: DMSO, c terminus: native
[4] = treatment: MLN4924 1 uM, 8 h, c terminus: native
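Note: 24-mer peptide tiles fused after GFP, lentivirally expressed, FACS-sorted into six equal bins by GFP/DsRed ratio, decoded by Illumina sequencing, PSI is the read-weighted mean bin number.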

| Sequence | protein stability index [1] | protein stability index [2] | protein stability index [3] | protein stability index [4] |
| --- | --- | --- | --- | --- |
| NVLSDLYAMGITECDNMLMLLSVS [SEPHS2] | 2.93 ± 0.55 | 2.71 ± 0.42 |  |  |
| NWGQDPGVSANASKAWHQKSHFQN [PBXIP1] | 2.94 ± 0.5 | 3.43 ± 0.32 |  |  |
| PALAPVPRNSCITCPQCHRSLILD [TRIM9] | 3.31 ± 0.3 | 3.37 ± 0.33 |  |  |
| PANTQINDIRIFLEKVLEENAQKK [VPS39] | 3.73 ± 0.22 | 3.61 ± 0.36 |  |  |
| PARAGSEVEWTEDLALDLGPQSRE [C2CD2L] | 5.24 ± 0.23 | 5.31 ± 0.23 |  |  |
| PASPNPFVHELHLSRLQRVKFCLL [LPCAT4] | 2.56 ± 0.6 | 2.51 ± 0.3 |  |  |
| PATHLSPALAPVPRNSCITCPQCH [TRIM9] | 3.82 ± 0.39 | 3.87 ± 0.23 |  |  |
| PDAETLKVMKQPRCGVPDVAQFVL [MMP1] | 2.4 ± 0.3 | 2.31 ± 0.27 |  |  |
| PDMSVTKVVVHKETEITPEDGED [EPB41L3] |  |  | 5.5 ± 0.35 | 5.57 ± 0.29 |
| PDPTPPEPEEEILGSDDEEQEDPA [SRPK2] | 5.62 ± 0.33 | 5.53 ± 0.21 |  |  |
| PDTAPPSERPLEDLRLRLDHLGWV [RTN2] | 3.39 ± 0.44 | 3.24 ± 0.38 |  |  |
| PEADCIPKEQLSTSFQWVTKWVDY [PLK2] | 3.01 ± 0.34 | 2.8 ± 0.48 |  |  |
| PEGIQKVAKCLIGVNYPKPMVNHA [CRY1] | 2.46 ± 0.18 | 2.87 ± 0.23 |  |  |
| PEPPPVSFQPYHPLHFRGSNGMS [TENT5D] |  |  | 3.77 ± 0.29 | 3.91 ± 0.22 |
| PETAHPNLVLSEDRKSVKFVETRL [TRIM39] | 4.04 ± 0.45 | 4.15 ± 0.16 |  |  |
| PFNGDCRITKDNRRHCQACRLKRC [VDR] | 3.19 ± 0.3 | 3.4 ± 0.34 |  |  |
| PFPAGPLAVAGGPRKTAAPVNALV [ESRRA] | 3.7 ± 0.34 | 3.61 ± 0.31 |  |  |
| PGARTRAGAARVARWRRLRLQQLR [FBXO33] | 4.12 ± 0.28 | 4.51 ± 0.26 |  |  |
| PGEVVPSGESGLRRRGSDPASGEV [TMEM40] | 5.52 ± 0.32 | 5.43 ± 0.23 |  |  |
| PGPKGDPGEKSHWGEGLHQLREAL [EMID1] | 3.32 ± 0.13 | 3.46 ± 0.52 |  |  |
| PGSQALPAPALAPDQLPQNNTLVA [FBXO28] | 4.74 ± 0.35 | 4.88 ± 0.37 |  |  |
| PHHHSFYDFIVTKARGKSGPLFNF [FAM50A] | 2.29 ± 0.29 | 2.22 ± 0.16 |  |  |
| PHMAEQTFEQAIQAASRIIRNEQF [CDC25B] | 3.1 ± 0.29 | 3.39 ± 0.17 |  |  |

| Sequence | protein stability index [1] | protein stability index [2] | protein stability index [3] | protein stability index [4] |
| --- | --- | --- | --- | --- |
| PICVQIPWDKNPEALAKWAEGRTG [CRY1] | 3.51 ± 0.35 | 3.6 ± 0.24 |  |  |
| PKAERLRWSPAQEESFRQMVVIHK [ZNF232] | 3.19 ± 0.31 | 3.25 ± 0.37 |  |  |
| PKGWRQLAQEAEAWLNYPCFKNWD [OAS1] | 2.72 ± 0.23 | 2.82 ± 0.18 |  |  |
| PKPSVLFLHPDLGVGGAERLVLDA [ALG2] | 3.23 ± 0.29 | 3.15 ± 0.23 |  |  |
| PLAQNERCLHMFLQDEIIDKSYTP [SNX3] | 2.97 ± 0.24 | 3.39 ± 0.22 |  |  |
| PLCMAVLTTASIIQLGVTPPGYSA [SLC6A17] | 3.14 ± 0.94 | 2.94 ± 0.4 |  |  |
| PLFTPQSPVTATLSDEDDGFVDLL [CDC25A] | 4.65 ± 0.13 | 4.43 ± 0.38 |  |  |
| PLLPSDLRRTGCAALRIANCKLFR [GAN] | 2.29 ± 0.34 | 2.35 ± 0.24 |  |  |
| PLNCAPCPRRSEPVVQCQYPSGAE [IRX6] | 3.93 ± 0.14 | 3.94 ± 0.12 |  |  |
| PLPWSECPVVRNGSVAVVEAECEK [SLC6A17] | 5.443 ± 0.034 | 5.3 ± 0.29 |  |  |
| PLSAVYRICLGKFTFPGMSLDKRQ [TPRG1] | 2.23 ± 0.46 | 2.24 ± 0.22 |  |  |
| PLYLLTWKIAPAMAAGNTVIAKPS [ALDH8A1] | 2.04 ± 0.52 | 2.11 ± 0.4 |  |  |
| PNLTYVYPHTRIQSLVSILRTTVH [CLCN6] | 2.38 ± 0.51 | 2.23 ± 0.17 |  |  |
| PNVIDNFLCDLYPLLKLACTNTYV [OR4A15] | 2.87 ± 0.2 | 3.12 ± 0.29 |  |  |
| PPGNVYWPLRGKREAMLEMLLQHQ [SPAG8] | 2.52 ± 0.055 | 2.65 ± 0.3 |  |  |
| PQAFPMSRLWDSRLRHYLGSRYDA [DNAAF3] | 2.2 ± 0.47 | 2.51 ± 0.35 |  |  |
| PQEPRPPKRATKPKKAPKREKSAP [CPXM2] | 5.14 ± 0.46 | 5.42 ± 0.18 |  |  |
| PQKASAPAADPPRYTFAPSVSLNK [PDLIM7] | 4.33 ± 0.19 | 4.32 ± 0.22 |  |  |
| PQVFVSNKINAGMYILSPAVLRRI [GMPPB] | 2.21 ± 0.39 | 2.06 ± 0.26 |  |  |
| PRCPGSVNEKLPQREGTGKTVSLQ [SMOC2] | 5.03 ± 0.14 | 5.03 ± 0.54 |  |  |
| PRMNEVYTRLGEMNNAVRNLQELL [CEP70] | 3.78 ± 0.18 | 3.86 ± 0.23 |  |  |
| PSAELVQTRMAVSLTAAETLALQG [ZNF232] | 3.45 ± 0.35 | 3.23 ± 0.23 |  |  |
| PSLFHLNTLKRENSSPRVMQRKQS [DLC1] | 3.92 ± 0.16 | 4.2 ± 0.15 |  |  |

| Sequence | protein stability index [1] | protein stability index [2] | protein stability index [3] | protein stability index [4] |
| --- | --- | --- | --- | --- |
| PSPDMECADVPLLTPSSKEMMSQA [ETS1] | 5.15 ± 0.25 | 5.2 ± 0.11 |  |  |
| PSVFDGLGDLLMPTMAPAGQPAPV [SNAP91] | 3.54 ± 0.25 | 3.57 ± 0.2 |  |  |
| PSVRSSKDGKLLAATLLLALLSCC [TNFSF13B] | 2.73 ± 0.66 | 2.81 ± 0.85 |  |  |
| PTEGAGSPAKASQASKLRASKEEK [FBF1] | 5.41 ± 0.21 | 5.43 ± 0.28 |  |  |
| PVAQSTDGIRGKVGHARGLHAWQI [SPSB4] | 2.68 ± 0.37 | 2.84 ± 0.29 |  |  |
| PVDLWACGVILYILLVGYPPFWDE [CAMK2A] | 3.08 ± 0.1 | 2.56 ± 0.096 |  |  |
| PVPAFQSDGTDEPESKEPVEKEEE [SMG5] | 5.57 ± 0.24 | 5.56 ± 0.24 |  |  |
| PVYRRDCHEEVYAGSHQYPGRGVY [ACBD3] | 2.89 ± 0.29 | 3.03 ± 0.2 |  |  |
| PWDESGSGCLPPEPLFEAGDATLA [FOXJ1] | 5.07 ± 0.39 | 5.08 ± 0.23 |  |  |
| PWSLFDVLVEKYGWPHEDAAQFTD [SRPK2] | 2.61 ± 0.28 | 2.88 ± 0.51 |  |  |
| PYDLHLRSQSLTMQDELNAVFHN [NEUROD6] |  |  | 3.44 ± 0.22 | 3.71 ± 0.15 |
| PYGPPPDAVQTSLMDEGASSEKKR [RBBP5] | 5.37 ± 0.25 | 5.463 ± 0.047 |  |  |
| QAHGSEGLTFQGLLPLTELSVCPL [PLEKHN1] | 3.08 ± 0.29 | 3.05 ± 0.19 |  |  |
| QAIFHAVDQYLALPDVSLGRYAYV [MCOLN1] | 3.16 ± 0.59 | 2.68 ± 0.31 |  |  |
| QAKQEMNESRRQIQSLTCEVDGLR [PRPH] | 4.55 ± 0.37 | 4.78 ± 0.18 |  |  |
| QALLIRERILGPSHPDTSYYIRYR [FEM1A] | 2.31 ± 0.2 | 2.56 ± 0.33 |  |  |
| QCLDKTNESALVKEKELSIELANI [MTUS2] | 4.79 ± 0.27 | 4.77 ± 0.22 |  |  |
| QDIAQEISEAFSQRVGFGDDFDED [CHMP4C] | 5.62 ± 0.21 | 5.5 ± 0.18 |  |  |
| QDTEVFSWSDNERSSSRINIPERA [FAM104B] | 4.62 ± 0.094 | 4.53 ± 0.067 |  |  |
| QELLKRTIMQAVSQIRLNREHKET [TEKT4] | 2.63 ± 0.17 | 2.79 ± 0.36 |  |  |
| QFIANLDQLNDGQDFAKDLLKTLY [PSD2] | 2.21 ± 0.43 | 2.42 ± 0.28 |  |  |
| QFYMFGWTHVTLLIVVTQSHLVIH [CDS2] | 2.85 ± 0.37 | 3.31 ± 0.59 |  |  |
| QGDLASLRAELQGHHAEKLPAGAG [TNFSF13B] | 4.72 ± 0.2 | 4.76 ± 0.18 |  |  |

| Sequence | protein stability index [1] | protein stability index [2] | protein stability index [3] | protein stability index [4] |
| --- | --- | --- | --- | --- |
| QGGELVVAYPYDLVRSPWKTQEHT [CPXM2] | 2.58 ± 0.21 | 2.15 ± 0.25 |  |  |
| QGGEYLPKPEPPQLVLAYDYSREV [FEM1A] | 3.93 ± 0.23 | 4.12 ± 0.28 |  |  |
| QGPQGREGLAFLVSCPEGRADCAS [PWWP2B] | 3.77 ± 0.33 | 3.95 ± 0.26 |  |  |
| QHLKSKALRERWLLEGTPSSASEG [PALM] | 4.25 ± 0.13 | 4.33 ± 0.2 |  |  |
| QICTVKDIKAEPQPLSPASSSYSV [ATF6] | 4.16 ± 0.26 | 3.98 ± 0.47 |  |  |
| QILELLVLEQFLTILPQEIQSRVQ [ZNF263] | 3.06 ± 0.47 | 3.43 ± 0.49 |  |  |
| QIMKEGKATASEAVDCKWYIRAPP [NETO1] | 3.24 ± 0.086 | 3.24 ± 0.2 |  |  |
| QIQKYTDCLQFYVNSTLKELRRLF [RTN1] | 2.73 ± 0.37 | 2.55 ± 0.31 |  |  |
| QKQLEQTLQQFNIKLRPPGAEKPS [ARFIP2] | 3.92 ± 0.098 | 4.07 ± 0.19 |  |  |
| QLDKNSEVYQEVQAMFDTLGIPKS [FAM98B] | 3.11 ± 0.69 | 3.66 ± 0.59 |  |  |
| QLSTPHAVGVLLLGLVGYYIFRVA [DHCR7] | 2.91 ± 0.44 | 2.94 ± 0.35 |  |  |
| QMLLNVEANSAKVQEDLEAEFQSL [FSD1] | 4.92 ± 0.21 | 4.96 ± 0.2 |  |  |
| QMPPVIVETARSHQRSSSESYTQS [PI4K2A] | 4.6 ± 0.28 | 4.72 ± 0.16 |  |  |
| QPAGNRRGQARRLAPNFRWAIPNR [BEX3] | 3.89 ± 0.14 | 3.75 ± 0.32 |  |  |
| QPPEESQPPQSQAQVPPAAPHHHH [PLK2] | 5.41 ± 0.11 | 5.43 ± 0.18 |  |  |
| QQAGLLVTGEKEEPSRSASEADSE [PPEF2] | 5.613 ± 0.041 | 5.56 ± 0.16 |  |  |
| QQENKVLKIELETYKLKCKALQEE [CCDC6] | 4.28 ± 0.12 | 4.27 ± 0.14 |  |  |
| QQIAMDPEEVKSLDSNGAGEKSEN [BCL2L13] | 5.6 ± 0.45 | 5.63 ± 0.3 |  |  |
| QQLLPPFPSLHQSLPQNQCYMATT [EHMT1] | 3.29 ± 0.13 | 3.16 ± 0.17 |  |  |
| QQNEDLRRMAESLRIPEGPIDQGP [FUT8] | 4.96 ± 0.23 | 4.94 ± 0.17 |  |  |

From the supplement of paper PMC10567573
